The values that follow come from PMC5707411 (Nature Communications, 2017).

Test [1] has as its target T1, full-length RSV F (TM, residues 1–574) from strain A2 with the DS-Cav1 prefusion-stabilizing mutations (Human respiratory syncytial virus A, …, UniProt P03420, stabilised).
T1 construct: signal peptide in the construct; In cells F0 is cut by furin-like proteases into F2 and F1 (pep27 removed) and forms trimers; also called RSV A2 pre-F; wild-type A2; source: Expi293, transiently transfected (pVRC8400), on the cell surface
The experiment in a line: flow cytometry on cells; Expi293 cells 48 h after transfection with full-length DS-Cav1 RSV F variants, stained with IgG 1 h at 4 °C (D25 Alexa Fluor 488-conjugated; 5C4 detected with FITC goat anti-mouse), fixed; fractional binding relative to motavizumab. Conditions: one partner purified. In general terms: In flow cytometry, cells or beads pass a laser one at a time.

Test [2] concerns the target full-length RSV F (TM, residues 1–574) from strain A2 with the DS-Cav1 prefusion-stabilizing mutations (Human respiratory syncytial virus A, …, UniProt P03420, stabilised). Put plainly: cell-based or functional assay.
For test [3], the target named is T2, StrepTagII and 6xHis-tagged RSV pre-F (DS-Cav1) in the 9320 RSV F background (Human respiratory syncytial virus B, …, UniProt Q6V2E7, stabilised).
T2 construct: respiratory syncytial virus fusion glycoprotein, subtype B strain 9320, stabilised in the prefusion conformation by the DS-Cav1 mutations; also called pre-F 9320; pre-F derived from subtype B strain 9320; source: Freestyle 293-F, transfected, expressed with kifunensine (5 µM); purified from supernatant (Strep-Tactin)
The experiment in a line: SPR; 6xHis-tagged pre-F (DS-Cav1) captured on an NTA sensor chip to ~150 RU, Biacore X100; Fab injected in 3-fold dilutions (5C4:pre-F 9320, 0.460–3000 nM); double-reference subtracted, 1:1 binding model. Particulars: both partners purified. On the technique in general: Surface plasmon resonance follows binding to a sensor surface in real time, without labels.

Test [4] concerns the target T3, RSV F (+) FdTHS based on strain A2 (wild-type A2 RSV F ectodomain fused to a C-terminal trimerization motif) (Human respiratory syncytial virus A, …, fully glycosylated (N-linked) | fully glycosylated (N-linked)).
T3 construct: F2 subunit (N-terminal fragment of F0 made by furin-like proteases) of the respiratory syncytial virus fusion glycoprotein, strain A2; ectodomain part of the F1 subunit (C-terminal fragment of F0 made by furin-like proteases) of the respiratory syncytial virus fusion glycoprotein, strain A2; Trimer of F2-F1 heterodimers; pep27 is removed by furin-like proteases; also called pre-F; F glycoprotein; …
Put plainly: crystal structure; 5C4 Fab co-expressed with RSV F (+) FdTHS in Expi293, complex purified (Ni-NTA, Strep-Tactin, thrombin, Superose 6); crystal from 0.2 M ammonium acetate, 0.1 M Bis-Tris pH 6.5, 25% PEG 3350; 3.4 Å. Particulars: both partners purified.

B1: D25 IgG (antibody, V domains shown)
VH: QVQLVQSGAEVKKPGSSVMVSCQASGGPLRNYIINWLRQAPGQGPEWMGGIIPVLGTVHYAPKFQGRVTITADESTDTAYIHLISLRSEDTAMYYCATETALVVSTTYLPHYFDNWGQGTLVTVSS
VL: DIQMTQSPSSLSAAVGDRVTITCQASQDIVNYLNWYQQKPGKAPKLLIYVASNLETGVPSRFSGSGSGTDFSLTISSLQPEDVATYYCQQYDNLPLTFGGGTKVEIK
notes: D25 heavy chain (human antibody); the variable domain and CH1 are in the D25 Fab of the cited entry PDB 4JHW; rest of the IgG heavy chain not described; D25 light chain (human antibody); in the D25 Fab of the cited entry PDB 4JHW; also called mAb D25; Alexa Fluor 488-conjugated D25 IgG; copies: 2 + 2
Regarding B1, in test [1], the binding result is recorded as “binds”.

B2: 5C4 IgG (antibody, V domains shown)
VH: EVQLQQSGAELVKPGASVKLSCTASGFNIKDTFFHWVKQRPEQGLEWIGRIDPADGHTKYDPKFQGKATITADTSSNTAFLQLSSLTSVDTAVYYCATTITAVVPTPYNAMDYWGQGTSVTVSS
VL: DIVLTQSPASLAVSLGQRTTISCRASESVDSFDNSFIHWYQQKPGQPPKLLIFLASSLESGVPARFSGSGSRTDFTLTIDPVEADDAATYYCQQSNEDPFTFGSGTKLEIK
Turning to B2, the “EC50 of 5C4 neutralisation of mKate-RSV A2 wild-type virus on HEp-2 cells (viral F without DS-Cav1; antibody format not given)” value in test [2] turned out to be 4 ng/mL.

B3: 5C4 Fab (Fab, V domains shown)
VH: B2 VH
VL: B2 VL
notes: 5C4 Fab heavy chain (antibody elicited in mice); 5C4 Fab light chain (murine kappa, Vk3-10); source: Expi293, transiently co-transfected heavy and light chain plasmids; purified from supernatant (CaptureSelect LC-kappa (murine)); for the complex co-expressed with RSV F
A word on the stoichiometry N: it is a count of units in the complex or per binding partner. Consider B3, for which, in test [3], the binding result is “binds”. Moreover, the “stoichiometry N” value in test [4] came to 3.
